Measured values: US9512459B2 (priority 2011, dated 2016)

B1: Aspergillus niger glucose dehydrogenase (FAD-GDH) Ang-n2 variant E195K/Q196E/G73A, SEQ ID NO: 2 (Aspergillus niger CBS 513.88; E195K/G73A/Q196E) (protein)
chain: YDFVIVGGGTSGLVVANRLSELSDVTVAVIEAGESALNNFNVSNVMAYSTAFGTEVDWAYQTENQTYAGGLQQTIRAGKALGGTSTINGMSYTRAEDVQIDNWEVLGNDGWNWKNLFQYYKKSEGFQVPTKDQIAHGASYNASYHGLNGPLKVGWPNSMTNSSVFPVLKETFEKLGVQYNPDSEGGKMVGFTVHPDTLDREMNVREDAARAYYWPYEARSNLKIISNTRANKVIWANTTQGEAVAVGIEVTNAYGTETIYADKEVILSAGALRSPAILELSGIGNPDVLNKHNIPVKVNITTVGENLQDQTNNALSWEGVDTLTGLATFSVLPSVNQLYGDNVTALASYVKSQLASYAKTVASASNGAVKEANLVEAFERQYDLIFNSQVPYTEVVFAPSGNSFAVEYWPLLPFSRGSVHIQSANASDYPAINPNYFMFDQDAEAQVTVAQYIRKALGTAPLNSLVGEEVSPGLDVLPASASSATWTKWVKENYRTNYHPVGTTSMLPREKGGVVSPELKVYGTKNVRVVDASVLPFQLCGHLTSTLYAVAERASDLIKESY
notes: E. coli BL21(DE3), crude extract, small-scale culture
B2: Aspergillus niger glucose dehydrogenase (FAD-GDH) Ang-n2 variant T522S, SEQ ID NO: 2 (Aspergillus niger CBS 513.88; T522S) (protein)
chain: YDFVIVGGGTSGLVVANRLSELSDVTVAVIEAGESALNNFNVSNVMGYSTAFGTEVDWAYQTENQTYAGGLQQTIRAGKALGGTSTINGMSYTRAEDVQIDNWEVLGNDGWNWKNLFQYYKKSEGFQVPTKDQIAHGASYNASYHGLNGPLKVGWPNSMTNSSVFPVLEQTFEKLGVQYNPDSEGGKMVGFTVHPDTLDREMNVREDAARAYYWPYEARSNLKIISNTRANKVIWANTTQGEAVAVGIEVTNAYGTETIYADKEVILSAGALRSPAILELSGIGNPDVLNKHNIPVKVNITTVGENLQDQTNNALSWEGVDTLTGLATFSVLPSVNQLYGDNVTALASYVKSQLASYAKTVASASNGAVKEANLVEAFERQYDLIFNSQVPYTEVVFAPSGNSFAVEYWPLLPFSRGSVHIQSANASDYPAINPNYFMFDQDAEAQVTVAQYIRKALGTAPLNSLVGEEVSPGLDVLPASASSATWTKWVKENYRSNYHPVGTTSMLPREKGGVVSPELKVYGTKNVRVVDASVLPFQLCGHLTSTLYAVAERASDLIKESY
notes: pET30c, E. coli BL21(DE3), crude extract
B3: Aspergillus niger glucose dehydrogenase (FAD-GDH) Ang-n3, SEQ ID NO: 2 (26 N-terminal residues deleted, Met-Asn-Thr-Thr-Thr- added) (Aspergillus niger CBS … (protein)
chain: YDFVIVGGGTSGLVVANRLSELSDVTVAVIEAGESALNNFNVSNVMGYSTAFGTEVDWAYQTENQTYAGGLQQTIRAGKALGGTSTINGMSYTRAEDVQIDNWEVLGNDGWNWKNLFQYYKKSEGFQVPTKDQIAHGASYNASYHGLNGPLKVGWPNSMTNSSVFPVLEQTFEKLGVQYNPDSEGGKMVGFTVHPDTLDREMNVREDAARAYYWPYEARSNLKIISNTRANKVIWANTTQGEAVAVGIEVTNAYGTETIYADKEVILSAGALRSPAILELSGIGNPDVLNKHNIPVKVNITTVGENLQDQTNNALSWEGVDTLTGLATFSVLPSVNQLYGDNVTALASYVKSQLASYAKTVASASNGAVKEANLVEAFERQYDLIFNSQVPYTEVVFAPSGNSFAVEYWPLLPFSRGSVHIQSANASDYPAINPNYFMFDQDAEAQVTVAQYIRKALGTAPLNSLVGEEVSPGLDVLPASASSATWTKWVKENYRTNYHPVGTTSMLPREKGGVVSPELKVYGTKNVRVVDASVLPFQLCGHLTSTLYAVAERASDLIKESY
notes: otherwise wild type; pET30c, E. coli BL21(DE3), dialysed crude enzyme
B4: Aspergillus niger glucose dehydrogenase (FAD-GDH) Ang-n2 variant E195K/Q196R, SEQ ID NO: 2 (Aspergillus niger CBS 513.88; E195K/Q196R) (protein)
chain: YDFVIVGGGTSGLVVANRLSELSDVTVAVIEAGESALNNFNVSNVMGYSTAFGTEVDWAYQTENQTYAGGLQQTIRAGKALGGTSTINGMSYTRAEDVQIDNWEVLGNDGWNWKNLFQYYKKSEGFQVPTKDQIAHGASYNASYHGLNGPLKVGWPNSMTNSSVFPVLKRTFEKLGVQYNPDSEGGKMVGFTVHPDTLDREMNVREDAARAYYWPYEARSNLKIISNTRANKVIWANTTQGEAVAVGIEVTNAYGTETIYADKEVILSAGALRSPAILELSGIGNPDVLNKHNIPVKVNITTVGENLQDQTNNALSWEGVDTLTGLATFSVLPSVNQLYGDNVTALASYVKSQLASYAKTVASASNGAVKEANLVEAFERQYDLIFNSQVPYTEVVFAPSGNSFAVEYWPLLPFSRGSVHIQSANASDYPAINPNYFMFDQDAEAQVTVAQYIRKALGTAPLNSLVGEEVSPGLDVLPASASSATWTKWVKENYRTNYHPVGTTSMLPREKGGVVSPELKVYGTKNVRVVDASVLPFQLCGHLTSTLYAVAERASDLIKESY
notes: as for B2
B5: Aspergillus niger glucose dehydrogenase (FAD-GDH) Ang-n2 variant N368K, SEQ ID NO: 2 (Aspergillus niger CBS 513.88; N368K) (protein)
chain: YDFVIVGGGTSGLVVANRLSELSDVTVAVIEAGESALNNFNVSNVMGYSTAFGTEVDWAYQTENQTYAGGLQQTIRAGKALGGTSTINGMSYTRAEDVQIDNWEVLGNDGWNWKNLFQYYKKSEGFQVPTKDQIAHGASYNASYHGLNGPLKVGWPNSMTNSSVFPVLEQTFEKLGVQYNPDSEGGKMVGFTVHPDTLDREMNVREDAARAYYWPYEARSNLKIISNTRANKVIWANTTQGEAVAVGIEVTNAYGTETIYADKEVILSAGALRSPAILELSGIGNPDVLNKHNIPVKVNITTVGENLQDQTNNALSWEGVDTLTGLATFSVLPSVNQLYGDKVTALASYVKSQLASYAKTVASASNGAVKEANLVEAFERQYDLIFNSQVPYTEVVFAPSGNSFAVEYWPLLPFSRGSVHIQSANASDYPAINPNYFMFDQDAEAQVTVAQYIRKALGTAPLNSLVGEEVSPGLDVLPASASSATWTKWVKENYRTNYHPVGTTSMLPREKGGVVSPELKVYGTKNVRVVDASVLPFQLCGHLTSTLYAVAERASDLIKESY
notes: as for B2
B6: Aspergillus niger glucose dehydrogenase (FAD-GDH) Ang-n2 variant E195K/Q196E/N368K/T522S, SEQ ID NO: 2 (Aspergillus niger CBS 513.88; E195K/N368K/Q196E/T522S) (protein)
chain: YDFVIVGGGTSGLVVANRLSELSDVTVAVIEAGESALNNFNVSNVMGYSTAFGTEVDWAYQTENQTYAGGLQQTIRAGKALGGTSTINGMSYTRAEDVQIDNWEVLGNDGWNWKNLFQYYKKSEGFQVPTKDQIAHGASYNASYHGLNGPLKVGWPNSMTNSSVFPVLKETFEKLGVQYNPDSEGGKMVGFTVHPDTLDREMNVREDAARAYYWPYEARSNLKIISNTRANKVIWANTTQGEAVAVGIEVTNAYGTETIYADKEVILSAGALRSPAILELSGIGNPDVLNKHNIPVKVNITTVGENLQDQTNNALSWEGVDTLTGLATFSVLPSVNQLYGDKVTALASYVKSQLASYAKTVASASNGAVKEANLVEAFERQYDLIFNSQVPYTEVVFAPSGNSFAVEYWPLLPFSRGSVHIQSANASDYPAINPNYFMFDQDAEAQVTVAQYIRKALGTAPLNSLVGEEVSPGLDVLPASASSATWTKWVKENYRSNYHPVGTTSMLPREKGGVVSPELKVYGTKNVRVVDASVLPFQLCGHLTSTLYAVAERASDLIKESY
notes: as for B2
B7: Aspergillus niger glucose dehydrogenase (FAD-GDH) Ang-n2 variant N368K/T522S, SEQ ID NO: 2 (Aspergillus niger CBS 513.88; N368K/T522S) (protein)
chain: YDFVIVGGGTSGLVVANRLSELSDVTVAVIEAGESALNNFNVSNVMGYSTAFGTEVDWAYQTENQTYAGGLQQTIRAGKALGGTSTINGMSYTRAEDVQIDNWEVLGNDGWNWKNLFQYYKKSEGFQVPTKDQIAHGASYNASYHGLNGPLKVGWPNSMTNSSVFPVLEQTFEKLGVQYNPDSEGGKMVGFTVHPDTLDREMNVREDAARAYYWPYEARSNLKIISNTRANKVIWANTTQGEAVAVGIEVTNAYGTETIYADKEVILSAGALRSPAILELSGIGNPDVLNKHNIPVKVNITTVGENLQDQTNNALSWEGVDTLTGLATFSVLPSVNQLYGDKVTALASYVKSQLASYAKTVASASNGAVKEANLVEAFERQYDLIFNSQVPYTEVVFAPSGNSFAVEYWPLLPFSRGSVHIQSANASDYPAINPNYFMFDQDAEAQVTVAQYIRKALGTAPLNSLVGEEVSPGLDVLPASASSATWTKWVKENYRSNYHPVGTTSMLPREKGGVVSPELKVYGTKNVRVVDASVLPFQLCGHLTSTLYAVAERASDLIKESY
notes: as for B2
B8: Aspergillus niger glucose dehydrogenase (FAD-GDH) Ang-n2 variant E195K/Q196D, SEQ ID NO: 2 (Aspergillus niger CBS 513.88; E195K/Q196D) (protein)
chain: YDFVIVGGGTSGLVVANRLSELSDVTVAVIEAGESALNNFNVSNVMGYSTAFGTEVDWAYQTENQTYAGGLQQTIRAGKALGGTSTINGMSYTRAEDVQIDNWEVLGNDGWNWKNLFQYYKKSEGFQVPTKDQIAHGASYNASYHGLNGPLKVGWPNSMTNSSVFPVLKDTFEKLGVQYNPDSEGGKMVGFTVHPDTLDREMNVREDAARAYYWPYEARSNLKIISNTRANKVIWANTTQGEAVAVGIEVTNAYGTETIYADKEVILSAGALRSPAILELSGIGNPDVLNKHNIPVKVNITTVGENLQDQTNNALSWEGVDTLTGLATFSVLPSVNQLYGDNVTALASYVKSQLASYAKTVASASNGAVKEANLVEAFERQYDLIFNSQVPYTEVVFAPSGNSFAVEYWPLLPFSRGSVHIQSANASDYPAINPNYFMFDQDAEAQVTVAQYIRKALGTAPLNSLVGEEVSPGLDVLPASASSATWTKWVKENYRTNYHPVGTTSMLPREKGGVVSPELKVYGTKNVRVVDASVLPFQLCGHLTSTLYAVAERASDLIKESY
notes: as for B2
B9: Aspergillus niger glucose dehydrogenase (FAD-GDH) Ang-n3 variant E195K/Q196E, SEQ ID NO: 2 (Aspergillus niger CBS 513.88; E195K/Q196E) (protein)
chain: YDFVIVGGGTSGLVVANRLSELSDVTVAVIEAGESALNNFNVSNVMGYSTAFGTEVDWAYQTENQTYAGGLQQTIRAGKALGGTSTINGMSYTRAEDVQIDNWEVLGNDGWNWKNLFQYYKKSEGFQVPTKDQIAHGASYNASYHGLNGPLKVGWPNSMTNSSVFPVLKETFEKLGVQYNPDSEGGKMVGFTVHPDTLDREMNVREDAARAYYWPYEARSNLKIISNTRANKVIWANTTQGEAVAVGIEVTNAYGTETIYADKEVILSAGALRSPAILELSGIGNPDVLNKHNIPVKVNITTVGENLQDQTNNALSWEGVDTLTGLATFSVLPSVNQLYGDNVTALASYVKSQLASYAKTVASASNGAVKEANLVEAFERQYDLIFNSQVPYTEVVFAPSGNSFAVEYWPLLPFSRGSVHIQSANASDYPAINPNYFMFDQDAEAQVTVAQYIRKALGTAPLNSLVGEEVSPGLDVLPASASSATWTKWVKENYRTNYHPVGTTSMLPREKGGVVSPELKVYGTKNVRVVDASVLPFQLCGHLTSTLYAVAERASDLIKESY
notes: pET30c, E. coli BL21(DE3), dialysed crude enzyme
B10: Aspergillus niger glucose dehydrogenase (FAD-GDH) Ang-n1 variant E195K/Q196E, SEQ ID NO: 2 (Aspergillus niger CBS 513.88; E195K/Q196E) (protein)
chain: MDSPAHYDFVIVGGGTSGLVVANRLSELSDVTVAVIEAGESALNNFNVSNVMGYSTAFGTEVDWAYQTENQTYAGGLQQTIRAGKALGGTSTINGMSYTRAEDVQIDNWEVLGNDGWNWKNLFQYYKKSEGFQVPTKDQIAHGASYNASYHGLNGPLKVGWPNSMTNSSVFPVLKETFEKLGVQYNPDSEGGKMVGFTVHPDTLDREMNVREDAARAYYWPYEARSNLKIISNTRANKVIWANTTQGEAVAVGIEVTNAYGTETIYADKEVILSAGALRSPAILELSGIGNPDVLNKHNIPVKVNITTVGENLQDQTNNALSWEGVDTLTGLATFSVLPSVNQLYGDNVTALASYVKSQLASYAKTVASASNGAVKEANLVEAFERQYDLIFNSQVPYTEVVFAPSGNSFAVEYWPLLPFSRGSVHIQSANASDYPAINPNYFMFDQDAEAQVTVAQYIRKALGTAPLNSLVGEEVSPGLDVLPASASSATWTKWVKENYRTNYHPVGTTSMLPREKGGVVSPELKVYGTKNVRVVDASVLPFQLCGHLTSTLYAVAERASDLIKESY
notes: as for B2

substrate: OC[C@H]1OC(O)[C@H](O)[C@@H](O)[C@@H]1O; test: cells, lysate or membranes named; format: biochemical, Aspergillus niger; conditions: other: 3 ml culture, crude enzyme, glucose 1-40 mM, pH 6.5, DCIP/PMS

Q: B1 was tested. Which Km did it give?
A: 5.5 mM

Q: What about the Vmax of the same protein?
A: 5.0 U/mg protein

same assay, conditions: other: 60 ml culture, crude enzyme, glucose 1-40 mM, pH 6.5, DCIP/PMS, 20.0 °C

Q: With B2 as the protein, how does the Km read?
A: 2.5 mM

Q: And the Vmax?
A: 3.4 µmol/min/mg

Q: What does the source list for B3?
A: Km: 3.7 mM; Vmax: 0.7 µmol/min/mg

Q: With B4 as the protein, how does the Km read?
A: 2.5 mM

Q: What about the Vmax of the same protein?
A: 4.3 µmol/min/mg

Q: B5 was tested. Which Km did it give?
A: 4.6 mM

Q: What about the Vmax of the same protein?
A: 0.7 µmol/min/mg

Q: For B6, which Km is on record?
A: 3.2 mM

Q: What about the Vmax of the same protein?
A: 6.1 µmol/min/mg

Q: How did the Km turn out when B7 was run?
A: 3.4 mM

Q: What about the Vmax of the same protein?
A: 5.3 µmol/min/mg

Q: What does the source list for B8?
A: Km: 2.9 mM; Vmax: 5.1 µmol/min/mg

Q: With B9 as the protein, how does the Km read?
A: 2.2 mM

Q: And the Vmax?
A: 4.5 µmol/min/mg

Q: What does the source list for B10?
A: Km: 2.8 mM; Vmax: 2.5 µmol/min/mg
